Values of other authors as cited in article PMC2783455.

Molecular target: Calmodulin (UniProt P0DP23)

Substance: CyaA (from UniProt J7QLC0)
- Kd: 0.2 nM
